In patent publication US20070077597A1 (published 2007):

How the values were obtained:
Assay in all cases: panning, LacI Gt library on immobilized ROS membranes
[1] = target: LacI fusion clone 15/28 (Gt library) (E. coli, UniProt P03023 1-360)
Protocol: (§1) For screening of the library by “panning,” rhodopsin receptors prepared according to Example 5 were immobilized directly on Immulon 4 (Dynatech) microtiter wells (0.1-1 μg of protein per well) in cold 35 mM HEPES, pH 7.5, containing 0.1 mM EDTA, 50 mM KCl and 1 mM dithiothreitol (HEK/DTT). After shaking for one hour at 4° C., unbound membrane fragments were washed away with HEK/DTT. The wells were blocked with 100 μl 2% BSA in HEKL (35 mM HEPES; 0.1 mM EDTA; 50 mM KCl; 0.2 M α-lactose; pH 7.5, with 1 mM DTT). For rounds 1 and 2, BSA was used for blocking; in later rounds 1% nonfat dry milk was used. For the first round of panning, about 24 wells of a 96-well plate were used. In subsequent rounds, 8 wells with receptor and 8 wells without receptor were prepared.
(§2) The Gt library was thawed (2 mL aliquot) and mixed with 6 mL lysis buffer on ice. Lysis buffer contains 4.25 mL HE (25 mM HEPES: 0.1 mM EDTA; pH 7.5); 1 mL 50% glycerol; 750 μL 10 mg/mL protease-free BSA in HE; 10 μL 0.5 M DTT; and 6.25 μL 0.2 M PMSF. Freshly prepared lysozyme solution (150 μL 10 mg/mL lysozyme in cold HE) was added and the tube was gently inverted several times and incubated on ice for no more than two minutes. The extent of lysis is evidenced by an increase in viscosity that can be observed by noting the slow migration of bubbles to the top of the tube after mixing. Lysis was terminated by mixing in 2 mL 20% lactose and 250 μL 2M KCl. The tube was centrifuged immediately at 13,000×g for 15 minutes at 4° C. and the supernatant transferred to a new tube. A small aliquot of 0.1% (the PRE sample) was saved in a separate, labeled tube. […] Immediately thereafter, the crude bacterial lysate from the peptide library (200 μL) was added to each well and allowed to shake gently for one hour at 4° C. For round 2, this same procedure was followed. In round 3, the amount of lysate used was reduced to 100 μL. In subsequent rounds, the lysate was diluted 1:10 in HEKL/BSA.

[2] = target: LacI fusion clone 19 (Gt library) (E. coli, UniProt P03023 1-360)
Protocol: as §1, §2

[3] = target: LacI fusion clone 3 (Gt library, light-activated rhodopsin screen) (E. coli, UniProt P03023 1-360)
Protocol: as §1, §2

[4] = target: LacI fusion clone 24 (Gt library) (E. coli, UniProt P03023 1-360)
Protocol: as §1, §2

[5] = target: LacI fusion clone 11 (Gt library) (E. coli, UniProt P03023 1-360)
Protocol: as §1, §2

[6] = target: LacI fusion clone 18 (Gt library) (E. coli, UniProt P03023 1-360)
Protocol: as §1, §2

[7] = target: LacI fusion clone 26 (Gt library, light-activated rhodopsin screen) (E. coli, UniProt P03023 1-360)
Protocol: as §1, §2

[8] = target: T1, LacI fusion clone 13 (Gt library), … (E. coli, UniProt P03023 1-360)
T1 construct: also called L20
Protocol: as §1, §2

[9] = target: LacI fusion clone 14 (Gt library) (E. coli, UniProt P03023 1-360)
Protocol: as §1, §2

[10] = target: LacI fusion clone 16 (Gt library) (E. coli, UniProt P03023 1-360)
Protocol: as §1, §2

[11] = target: LacI fusion clone 4 (Gt library) (E. coli, UniProt P03023 1-360)
Protocol: as §1, §2

[12] = target: LacI fusion clone 27 (Gt library) (E. coli, UniProt P03023 1-360)
Protocol: as §1, §2

[13] = target: LacI fusion clone 17 (Gt library, light-activated rhodopsin screen) (E. coli, UniProt P03023 1-360)
Protocol: as §1, §2

[14] = target: LacI fusion clone 6 (Gt library) (E. coli, UniProt P03023 1-360)
Protocol: as §1, §2

[15] = target: LacI fusion clone 23 (Gt library) (E. coli, UniProt P03023 1-360)
Protocol: as §1, §2

[16] = target: T2, LacI fusion clone 8 (Gt library) (E. coli, UniProt P03023 1-360)
T2 construct: also called Peptide 8; HAP
Protocol: as §1, §2

Measured: binding result

B1: light-activated bovine rhodopsin (metarhodopsin II) in rod outer segment membranes (receptor, UniProt P02699 1-348, looked up)
chain: MNGTEGPNFYVPFSNKTGVVRSPFEAPQYYLAEPWQFSMLAAYMFLLIMLGFPINFLTLYVTVQHKKLRTPLNYILLNLAVADLFMVFGGFTTTLYTSLHGYFVFGPTGCNLEGFFATLGGEIALWSLVVLAIERYVVVCKPMSNFRFGENHAIMGVAFTWVMALACAAPPLVGWSRYIPEGMQCSCGIDYYTPHEETNNESFVIYMFVVHFIIPLIVIFFCYGQLVFTVKEAAAQQQESATTQKAEKEVTRMVIIMVIAFLICWLPYAGVAFYIFTHQGSDFGPIFMTIPAFFAKTSAVYNPVIYIMMNKQFRNCMVTTLCCGKNPLGDDEASTTVSKTETSQVAPA
modifications: retinylidene chromophore on Lys-296 (all-trans after light)
notes: whole, on cells; also called MII
binds: all assays above
